The results in this text go back to paper PMC3348880, “MSMEG_2731, an Uncharacterized Nucleic Acid Binding Protein from Mycobacterium smegmatis, Physically Interacts with RPS1” (PLoS ONE, 2012).

For data set [1], the target named is T1, purified recombinant RPS1 (M. smegmatis, UniProt A0QYY6 1-479).
T1 construct: 30S ribosomal protein S1 (RPS1) of Mycobacterium smegmatis, gene amplified from M. smegmatis genomic DNA; Cloned into pET28a or pGEX-6P-1; also called purified RPS1; ribosomal protein S1; source: E. coli BL21 (DE3), purified
T1 sequence (looked up): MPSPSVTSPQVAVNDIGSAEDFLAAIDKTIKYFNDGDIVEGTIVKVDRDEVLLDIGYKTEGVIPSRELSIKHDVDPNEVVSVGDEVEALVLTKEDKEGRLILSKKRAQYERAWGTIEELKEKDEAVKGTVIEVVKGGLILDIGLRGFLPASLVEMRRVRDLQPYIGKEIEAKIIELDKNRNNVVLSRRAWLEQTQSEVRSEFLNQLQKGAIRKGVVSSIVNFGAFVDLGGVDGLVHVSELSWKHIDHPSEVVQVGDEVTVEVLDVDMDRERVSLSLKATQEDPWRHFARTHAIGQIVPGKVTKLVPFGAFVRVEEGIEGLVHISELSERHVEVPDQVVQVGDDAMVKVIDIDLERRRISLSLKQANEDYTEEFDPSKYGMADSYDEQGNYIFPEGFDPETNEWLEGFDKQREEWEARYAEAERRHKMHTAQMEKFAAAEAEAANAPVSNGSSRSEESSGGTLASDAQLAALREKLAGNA
Description: SPR; Biacore T100, 25°C; mixtures of 2.5 μM RPS1 with 1.25, 2.5 or 5 μM MSMEG_2731 passed over RNA immobilised on an SA chip (100 RU); 25 mM Tris-HCl pH 7.4, 150 mM NaCl, 0.005% Tween 20. As to conditions: both partners purified. In general terms: In SPR one partner is held on a chip, and binding of the other changes the refractive index at the surface.

Data set [2] addresses T2, 30S ribosomal protein S1 (RPS1) (Mycobacterium smegmatis, UniProt A0QYY6 1-479).
T2 sequence: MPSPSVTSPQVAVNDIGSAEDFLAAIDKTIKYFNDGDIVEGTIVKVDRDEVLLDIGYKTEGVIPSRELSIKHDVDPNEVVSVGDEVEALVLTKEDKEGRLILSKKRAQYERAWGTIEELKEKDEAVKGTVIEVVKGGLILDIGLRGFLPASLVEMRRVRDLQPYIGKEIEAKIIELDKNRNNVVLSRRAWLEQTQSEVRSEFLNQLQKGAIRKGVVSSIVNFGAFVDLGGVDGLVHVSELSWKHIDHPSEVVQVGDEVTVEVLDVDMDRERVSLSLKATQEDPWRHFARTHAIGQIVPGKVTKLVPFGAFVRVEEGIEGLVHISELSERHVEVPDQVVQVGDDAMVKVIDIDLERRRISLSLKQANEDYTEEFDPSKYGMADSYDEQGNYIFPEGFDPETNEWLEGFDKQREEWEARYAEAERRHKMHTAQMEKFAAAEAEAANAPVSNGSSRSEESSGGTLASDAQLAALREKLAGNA
The experiment in a line: SPR; 2.5 uM RPS1; fast association, complete dissociation; SPR (Biacore T100, SA chip): 25 mM Tris-HCl pH 7.4, 150 mM NaCl, 0.005% Tween 20, 25 C, 30 ul/min. To be noted: protein: recombinant; Methods name pET28a or pGEX-6P-1; label: 5' biotin (immobilized on SA chip); single strand.

In data set [3] the target is T3, MSMEG_2731;30S ribosomal protein S1 (RPS1) (Mycobacterium smegmatis;Mycobacterium …, UniProt A0QVX6;A0QYY6 1-454;1-479, |).
T3 sequence 1: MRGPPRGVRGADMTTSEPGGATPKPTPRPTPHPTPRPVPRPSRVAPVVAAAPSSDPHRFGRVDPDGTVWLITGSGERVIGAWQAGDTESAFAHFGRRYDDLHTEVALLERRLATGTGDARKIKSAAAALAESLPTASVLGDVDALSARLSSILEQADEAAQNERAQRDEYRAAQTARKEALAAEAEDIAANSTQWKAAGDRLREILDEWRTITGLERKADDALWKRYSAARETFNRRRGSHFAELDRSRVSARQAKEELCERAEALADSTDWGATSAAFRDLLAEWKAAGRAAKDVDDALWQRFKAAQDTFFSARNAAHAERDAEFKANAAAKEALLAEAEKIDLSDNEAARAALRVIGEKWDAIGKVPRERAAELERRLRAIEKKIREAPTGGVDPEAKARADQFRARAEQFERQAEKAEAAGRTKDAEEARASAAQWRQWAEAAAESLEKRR
T3 sequence 2: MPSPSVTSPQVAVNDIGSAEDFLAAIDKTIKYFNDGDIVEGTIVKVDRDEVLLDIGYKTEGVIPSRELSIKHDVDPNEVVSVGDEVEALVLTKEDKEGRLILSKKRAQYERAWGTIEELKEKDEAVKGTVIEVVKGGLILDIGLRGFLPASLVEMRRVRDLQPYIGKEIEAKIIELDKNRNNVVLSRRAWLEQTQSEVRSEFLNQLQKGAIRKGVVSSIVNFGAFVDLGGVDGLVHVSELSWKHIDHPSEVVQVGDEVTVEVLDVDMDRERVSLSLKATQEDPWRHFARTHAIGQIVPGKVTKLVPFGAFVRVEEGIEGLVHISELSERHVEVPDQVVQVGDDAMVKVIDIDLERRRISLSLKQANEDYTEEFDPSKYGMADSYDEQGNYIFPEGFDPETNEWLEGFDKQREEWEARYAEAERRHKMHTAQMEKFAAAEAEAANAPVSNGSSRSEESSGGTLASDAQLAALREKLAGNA
The experiment in a line: SPR; 2.5 uM RPS1 with 1.25, 2.5 or 5 uM MSMEG_2731; maximum response at 1:1; kinetics like RPS1 alone; SPR (Biacore T100, SA chip): 25 mM Tris-HCl pH 7.4, 150 mM NaCl, 0.005% Tween 20, 25 C, 30 ul/min. To be noted: protein: recombinant;recombinant; Methods name pET28a or pGEX-6P-1; copies: 1;1; label: 5' biotin (immobilized on SA chip); single strand.

B1: MSMEG_2731, N-terminal His-tagged recombinant protein (natural protein, M. smegmatis, UniProt A0QVX6 1-454, looked up)
chain: MRGPPRGVRGADMTTSEPGGATPKPTPRPTPHPTPRPVPRPSRVAPVVAAAPSSDPHRFGRVDPDGTVWLITGSGERVIGAWQAGDTESAFAHFGRRYDDLHTEVALLERRLATGTGDARKIKSAAAALAESLPTASVLGDVDALSARLSSILEQADEAAQNERAQRDEYRAAQTARKEALAAEAEDIAANSTQWKAAGDRLREILDEWRTITGLERKADDALWKRYSAARETFNRRRGSHFAELDRSRVSARQAKEELCERAEALADSTDWGATSAAFRDLLAEWKAAGRAAKDVDDALWQRFKAAQDTFFSARNAAHAERDAEFKANAAAKEALLAEAEKIDLSDNEAARAALRVIGEKWDAIGKVPRERAAELERRLRAIEKKIREAPTGGVDPEAKARADQFRARAEQFERQAEKAEAAGRTKDAEEARASAAQWRQWAEAAAESLEKRR
notes: MSMEG_2731, conserved hypothetical alanine and arginine rich protein of Mycobacterium smegmatis, 454 amino acids, three tandem repeats of DUF349; The protein tends to degrade at its N-terminus in vitro; also called full-length MSMEG_2731; recombinant MSMEG_2731; source: E. coli BL21 (DE3), pET28a, purified (Ni-NTA, gel filtration)
On to B1, for which the “stoichiometry N” value in data set [1] came to 1.

For CACGUAUCUCGAGGAGCGGAUAUGA (ssRNA, 5' biotin) [RNA 25 nt], the binding result in data set [2] and in data set [3] was “binds” in each case.

Broadly, the stoichiometry N is the number of molecules, sites or subunits per partner or assembly.
